Test results as given in patent publication US20260242478A1 (published 2026).
Where no end group is shown, it is not given here.

B1: Phage-2433 (peptide)
peptide: GDNWCKPAWMCRDM
notes: Peptide-180 library clone, tested as clonal phage (peptide fused to pIII)
B2: Phage-2431 (peptide)
peptide: VLKWCTPPWMCWDI
notes: as for B1
B3: Phage-2435 (peptide)
peptide: GINWCTPSWMCTGF
notes: as for B1
B4: Phage-2432 (peptide)
peptide: EVKWCIPNWMCAAS
modifications: cysteine pairing not given here; also: displayed as fusion to phage pIII
notes: as for B1
B5: Phage-2430 (peptide)
peptide: EIKWCTPPWMCTIG
notes: as for B1
B6: Phage-2434 (peptide)
peptide: EERWCIPEWMCSRI
notes: as for B1
B7: Phage-2495 (peptide)
peptide: LEKWCIPLWMCQTA
notes: Clonal phage of the peptide-180 library; not shown: pIII filament protein of the bacteriophage to which the peptide is fused
B8: Phage-2492 (peptide)
peptide: IEKMCIPAWMCTDK
notes: as for B7
B9: Phage-2489 (peptide)
peptide: WAKWCTPEWMCVVH
notes: as for B7
B10: Phage-2496 (peptide)
peptide: ESRLCIPAWMCESQ
notes: as for B7
B11: Phage-2485 (peptide)
peptide: VSPLCKPDWMCNGF
notes: as for B7
B12: Phage-2491 (peptide)
peptide: SVKWCTPSWMCEHM
notes: as for B7
B13: Phage-2494 (peptide)
peptide: HFKMCVPPWMCLFD
notes: as for B7
B14: Phage-2483 (peptide)
peptide: DSRWCIPDWMCELE
notes: as for B7
B15: Phage-2488 (peptide)
peptide: VSIWCIPPWMCVEK
notes: as for B7
B16: Phage-2490 (peptide)
peptide: DFKWCTPPWMCDVF
notes: as for B7
B17: Phage-2493 (peptide)
peptide: MGNWCTPPWMCTGF
notes: as for B7
B18: Phage-2486 (peptide)
peptide: FPHLCIPYWMCVRT
notes: as for B7
B19: Phage-2482 (peptide)
peptide: VVNWCTPAWMCSGF
modifications: cysteine pairing not given here; also: displayed on phage as fusion to pIII, pIII and linker sequence not given here
notes: as for B7
B20: Phage-2484 (peptide)
peptide: LVRWCVPEWMCAGM
modifications: cysteine pairing not given here; also: displayed on phage as fusion to pIII, pIII and linker sequence not given here
notes: as for B7
B21: Phage-2487 (peptide)
peptide: DYKWCTPIWMCAGD
modifications: cysteine pairing not given here; also: displayed on phage as fusion to pIII, pIII and linker sequence not given here
notes: as for B7

Each binder was assayed against T1, PSMA Fab (biotinylated (site not stated)) (assay: clonal phage ELISA; biotinylated PSMA Fab on neutravidin plate; anti-M13 HRP detection; blocking buffer alone).
T1 construct: Biotinylated PSMA Fab captured on neutravidin plates in the phage ELISA; also called Anti-PSMA Fab; 006 PSMA Fab

Binder | Phage binding ELISA signal, Anti-PSMA Fab
VVKWCTPPWMCSVW [Phage-2450] | 1.29
EVKWCIPAWMCVED [Phage-2444] | 1.3
GAIWCIPQWMCAWN (cysteine pairing not given here; also: displayed as fusion to phage pIII) [Phage-2443] | 1.3
EMNWCIPAWMCEGR [Phage-2437] | 1.31
VVHWCTPAWMCYDM [Phage-2441] | 1.3
MPKWCTPSWMCAVQ (cysteine pairing not given here; also: displayed as fusion to phage pIII) [Phage-2439] | 1.31
MPKWCTPSWMCSPS [Phage-2436] | 1.31
LHKLCTPTWMCEGF [Phage-2442] | 1.3
EAKWCIPNWMCEMA [Phage-2438] | 1.31
EEPWCIPSWMCALT (cysteine pairing not given here; also: displayed as fusion to phage pIII) [Phage-2449] | 1.29
IEKWCTPPWMCLDH [Phage-2447] | 1.29
YEKWCTPTWMCSWL [Phage-2446] | 1.29
ESKWCIPEWMCEQR [Phage-2448] | 1.29
LERWCIPSWMCTED [Phage-2445] | 1.3
PAKWCVPSWMCSEI [Phage-2440] | 1.31

The binders below were run against T2, PSMA Fab (assay: phage ELISA; biotinylated PSMA Fab on neutravidin plate, clonal phage supernatant, anti-M13 HRP; wells pre-incubated with PSMA antigen as competitor).
T2 construct: Biotinylated and captured on neutravidin coated plates in the phage ELISA; also called 006 PSMA Fab; Anti-PSMA Fab
Experimental: (§1) Clonal phage were harvested as crude supernatants and screened via standard ELISAs. […] Prior to the addition of clonal phage. wells were incubated with blocking buffer and PSMA antigen or blocking buffer alone. Without washing or aspirating, clonal phage supernatants were then added to the wells and incubated for a short time. Wells were then washed followed by detection of bound phage using a horse radish conjugated anti-M13 antibody.

Binder | phage binding ELISA signal
B1 | 0.0728
B2 | 0.123
B3 | 0.0711
B4 | 0.077
B5 | 0.102
B6 | 0.0557

The binders below were run against T3, 006 PSMA Fab (assay: phage ELISA: biotinylated PSMA Fab on neutravidin plate pre-incubated with PSMA antigen (competitor), clonal phage supernatant, anti-M13-HRP detection).
T3 construct: also called Anti-PSMA Fab; anti-PSMA Fab
Experimental: as §1

Binder | phage binding ELISA signal in presence of PSMA antigen
B7 | 0.0777
B8 | 0.0698
B9 | 0.15
B10 | 0.0772
B11 | 0.0787
B12 | 0.0739
B13 | 0.101
B14 | 0.0935
B15 | 0.101
B16 | 0.0763
B17 | 0.0704
B18 | 0.198
B19 | 0.0652
B20 | 0.0945
B21 | 0.0707

What follows are binders tested against T1, PSMA Fab (assay: clonal phage ELISA; biotinylated PSMA Fab on neutravidin plate pre-incubated with PSMA antigen as competitor; anti-M13 HRP detection;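 also: crude clonal phage supernatants briefly incubated on wells preloaded with PSMA antigen in blocking buffer, or buffer only as control, bound phage detected with HRP-conjugated anti-M13 antibody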).
Experimental: as §1

Binder | Phage binding ELISA signal, Anti-PSMA Fab in presence of PSMA
VVKWCTPPWMCSVW [Phage-2450] | 0.104
EVKWCIPAWMCVED [Phage-2444] | 0.0892
GAIWCIPQWMCAWN (cysteine pairing not given here; also: displayed as fusion to phage pIII) [Phage-2443] | 0.132
EMNWCIPAWMCEGR [Phage-2437] | 0.0633
VVHWCTPAWMCYDM [Phage-2441] | 0.0623
MPKWCTPSWMCAVQ (cysteine pairing not given here; also: displayed as fusion to phage pIII) [Phage-2439] | 0.0845
MPKWCTPSWMCSPS [Phage-2436] | 0.0576
LHKLCTPTWMCEGF [Phage-2442] | 0.0712
EAKWCIPNWMCEMA [Phage-2438] | 0.0622
EEPWCIPSWMCALT (cysteine pairing not given here; also: displayed as fusion to phage pIII) [Phage-2449] | 0.0689
IEKWCTPPWMCLDH [Phage-2447] | 0.0663
YEKWCTPTWMCSWL [Phage-2446] | 0.218
ESKWCIPEWMCEQR [Phage-2448] | 0.0688
LERWCIPSWMCTED [Phage-2445] | 0.0674
PAKWCVPSWMCSEI [Phage-2440] | 0.0676

The binders below were run against T2, PSMA Fab (assay: phage ELISA; biotinylated PSMA Fab on neutravidin plate, clonal phage supernatant, anti-M13 HRP; no PSMA antigen).
Experimental: as §1

Binder | phage binding ELISA signal
B1 | 1.32
B2 | 1.32
B3 | 1.31
B4 | 1.32
B5 | 1.32
B6 | 1.32

Each binder was assayed against T3, 006 PSMA Fab (assay: phage ELISA: biotinylated PSMA Fab on neutravidin plate, clonal phage supernatant, anti-M13-HRP detection; blocking buffer alone).
Experimental: as §1

Binder | phage binding ELISA signal
B7 | 1.22
B8 | 1.22
B9 | 1.22
B10 | 1.22
B11 | 1.22
B12 | 1.22
B13 | 1.22
B14 | 1.23
B15 | 1.22
B16 | 1.22
B17 | 1.22
B18 | 1.22
B19 | 1.23
B20 | 1.22
B21 | 1.22
